± gives the standard deviation of the averaged measurements.
Assay: total protein half-life in vivo (active degradation + dilution); higher = more stable protein
[1] = E. coli NCM3722 delta-hslV, growth: N-lim chemostat, doubling time 6 h
[2] = E. coli NCM3722 delta-lon, growth: N-lim chemostat, doubling time 6 h
[3] = E. coli NCM3722 delta-smpB, growth: N-lim chemostat, doubling time 6 h
[4] = wild type E. coli NCM3722, growth: C-lim chemostat, doubling time 3 h
[5] = wild type E. coli NCM3722, growth: C-lim chemostat, doubling time 6 h
[6] = wild type E. coli NCM3722, growth: C-lim chemostat, doubling time 12 h
[7] = wild type E. coli NCM3722, growth: N-lim chemostat, doubling time 6 h
[8] = wild type E. coli NCM3722, growth: N-lim chemostat, doubling time 12 h
[9] = wild type E. coli NCM3722, growth: P-lim chemostat, doubling time 6 h
[10] = wild type E. coli NCM3722, growth: P-lim chemostat, doubling time 12 h
[11] = E. coli NCM3722 delta-clpP delta-lon delta-hslV, growth: N-lim chemostat, doubling time 6 h
[12] = E. coli NCM3722 delta-clpP, growth: N-lim chemostat, doubling time 6 h

Sequence	total protein half-life in vivo [1]	total protein half-life in vivo [2]	total protein half-life in vivo [3]	total protein half-life in vivo [4]	total protein half-life in vivo [5]	total protein half-life in vivo [6]	total protein half-life in vivo [7]	total protein half-life in vivo [8]	total protein half-life in vivo [9]	total protein half-life in vivo [10]	total protein half-life in vivo [11]	total protein half-life in vivo [12]
MRQVLSSLLVIAGLVSGQAIAAPESPPHADIRDSGFVYCVSGQVNTFNPSKASSGLIVDTLAAQFYDRLLDVDPYTYRLMPELAESWEVLDNGATYRFHLRRDVPFQKTDWFTPTRKMNADDVVFTFQRIFDRNNPWHNVNGSNFPYFDSLQFADNVKSVRKLDNHTVEFRLAQPDASFLWHLATHYASVMSAEYARKLEKEDRQEQLDRQPVGTGPYQLSEYRAGQFIRLQRHDDFWRGKPLMPQVVVDLGSGGTGRLSKLLTGECDVLAWPAASQLSILRDDPRLRLTLRPGMNVAYLAFNTAKPPLNNPAVRHALALAINNQRLMQSIYYGTAETAASILPRASWAYDNEAKITEYNPAKSREQLKSLGLENLTLKLWVPTRSQAWNPSPLKTAELIQADMAQVGVKVVIVPVEGRFQEARLMDMSHDLTLSGWATDSNDPDSFFRPLLSCAAIHSQTNLAHWCDPKFDSVLRKALSSQQLAARIEAYDEAQSILAQELPILPLASSLRLQAYRYDIKGLVLSPFGNASFAGVYREKQDEVKKP	6.48 ± 0.7 h	6.22 ± 0.64 h	5.939 ± 0.032 h	3.129 ± 0.013 h	5.88 ± 0.23 h	11.05 ± 0.028 h	6.39 ± 0.57 h	13.5 ± 0.91 h	6.18 ± 0.2 h	12 ± 1.2 h	–	–
MRRLLSVAPVLLWLITPLAFAQLPGITSQPLPGGGQSWSLPVQTLVFITSLTFIPAILLMMTSFTRIIIVFGLLRNALGTPSAPPNQVLLGLALFLTFFIMSPVIDKIYVDAYQPFSEEKISMQEALEKGAQPLREFMLRQTREADLGLFARLANTGPLQGPEAVPMRILLPAYVTSELKTAFQIGFTIFIPFLIIDLVIASVLMALGMMMVPPATIALPFKLMLFVLVDGWQLLVGSLAQSFYS [P0AC05]	–	–	–	2.76 h	6.05 h	9.42 h	–	–	–	–	–	–
MRRLRFSPRSSFARTLLLIVTLLFASLVTTYLVVLNFAILPSLQQFNKVLAYEVRMLMTDKLQLEDGTQLVVPPAFRREIYRELGISLYSNEAAEEAGLRWAQHYEFLSHQMAQQLGGPTEVRVEVNKSSPVVWLKTWLSPNIWVRVPLTEIHQGDFSPLFRYTLAIMLLAIGGAWLFIRIQNRPLVDLEHAALQVGKGIIPPPLREYGASEVRSVTRAFNHMAAGVKQLADDRTLLMAGVSHDLRTPLTRIRLATEMMSEQDGYLAESINKDIEECNAIIEQFIDYLRTGQEMPMEMADLNAVLGEVIAAESGYEREIETALYPGSIEVKMHPLSIKRAVANMVVNAARYGNGWIKVSSGTEPNRAWFQVEDDGPGIAPEQRKHLFQPFVRGDSARTISGTGLGLAIVQRIVDNHNGMLELGTSERGGLSIRAWLPVPVTRAQGTTKEG [P0AEJ4]	6.19 ± 0.26 h	6.19 ± 0.32 h	6.14 ± 0.39 h	3.2 ± 0.14 h	6.16 ± 0.14 h	–	6.35 ± 0.27 h	13.1 ± 0.43 h	6.87 ± 0.93 h	14.12 ± 0.043 h	6.372 ± 0.049 h	7.33 ± 0.82 h
MRRTFIKKEGVVITTLARYLLGEKCGNRLKTIDELANECRSSVGLTQAALKTLESSGAIRIERRGRNGSYLVEMDNKALLTHVDINNVVCAMPLPYTRLYEGLASGLKAQFDGIPFYYAHMRGADIRVECLLNGVYDMAVVSRLAAESYLTQKGLCLALELGPHTYVGEHQLICRKGESANVKRVGLDNRSADQKIMTDVFFGGSDVERVDLSYHESLQRIVKGDVDAVIWNVVAENELTMLGLEATPLTDDPRFLQATEAVVLTRVDDYPMQQLLRAVVDKHALLAHQQRVVSGEQEPSY	5.34 ± 0.15 h	5.75 ± 0.52 h	4.78 ± 0.41 h	2.78 ± 0.093 h	5.3 ± 0.1 h	7.63 ± 2.6 h	4.68 ± 0.65 h	9.45 ± 0.82 h	5.166 ± 0.0084 h	9.42 ± 0.63 h	6.2 ± 0.085 h	5.94 ± 0.07 h
MRRTFTAEEKASVFELWKNGTGFSEIANILGSKPGTIFTMLRDTGGIKPHERKRAVAHLTLSEREEIRAGLSAKMSIRAIATALNRSPSTISREVQRNRGRRYYKAVDANNRANRMAKRPKPCLLDQNLPLRKLVLEKLEMKWSPEQISGWLRRTKPRQKTLRISPETIYKTLYFRSREALHHLNIQHLRRSHSLRHGRRHTRKGERGTINIVNGTPIHERSRNIDNRRSLGHWEGDLVSGTKNSHIATLVDRKSRYTIILRLRGKDSVSVNQALTDKFLSLPSELRKSLTWDRGMELARHLEFTVSTGVKVYFCDPQSPWQRGTNENTNGLIRQYFPKKTCLAQYTQHELDLVAAQLNNRPRKTLKFKTPKEIIERGVALTD [P0CF90]	–	–	–	–	–	–	–	–	–	–	5.45 ± 0.8 h	–
MRSKYIVIEGLEGAGKTTARNVVVETLEQLGIRDMVFTREPGGTQLAEKLRSLVLDIKSVGDEVITDKAEVLMFYAARVQLVETVIKPALANGTWVIGDRHDLSTQAYQGGGRGIDQHMLATLRDAVLGDFRPDLTLYLDVTPEVGLKRARARGELDRIEQESFDFFNRTRARYLELAAQDKSIHTIDATQPLEAVMDAIRTTVTHWVKELDA [P0A720]	4.4 ± 0.41 h	4.52 ± 0.32 h	4.25 ± 0.13 h	3.059 ± 0.011 h	5.11 ± 0.073 h	9.9341 ± 0.0012 h	3.93 ± 0.26 h	6.63 ± 0.1 h	5.59 ± 0.5 h	11.3 ± 0.12 h	4.32 ± 0.51 h	4 ± 0.41 h
MRSLADFEFNKAPLCEGMILACEAIRRDFPSQDVYDELERLVSLAKEEISQLLPLEEQLEKLIALFYGDWGFKASRGVYRLSDALWLDQVLKNRQGSAVSLGAVLLWVANRLDLPLLPVIFPTQLILRIECPDGEIWLINPFNGESLSEHMLDVWLKGNISPSAELFYEDLDEADNIEVIRKLLDTLKASLMEENQMELALRTSEALLQFNPEDPYEIRDRGLIYAQLDCEHVALNDLSYFVEQCPEDPISEMIRAQINNIAHKHIVLH [P0AGM5]	–	–	–	0.281 h	–	–	–	–	–	–	–	–
MRSPICHLFSAINSSPFKIAPEKEQDLKTIVDDKKIIISVVSEPGFNIRVRKNESNNSHEIVLTVASLEYIWAFSNFFWVFTQEYSKSQKNNDEHFDLTGKNRLKKSDELLKWARKNLQTTGCESWPKKCPKPEAYLQGSEDSQVASEIFLCAIAWILHHEISHVVLQHPLVTTAFSTQEEREADSHATKWILGNLYESAPELKKRALGIATAVLCIQSLEVENYFCLQNTHPAAYERIYSNISCYPVGNEELIEALCTVMLQYLFHGKNINVNLDGESFSSILGDLLCDISRLTSN	–	–	1.26 h	–	–	–	–	–	–	–	4.49 ± 0.37 h	–
MRTLQGWLLPVFMLPMAVYAQEATVKEVHDAPAVRGSIIANMLQEHDNPFTLYPYDTNYLIYTQTSDLNKEAIASYDWAENARKDEVKFQLSLAFPLWRGILGPNSVLGASYTQKSWWQLSNSEESSPFRETNYEPQLFLGFATDYRFAGWTLRDVEMGYNHDSNGRSDPTSRSWNRLYTRLMAENGNWLVEVKPWYVVGNTDDNPDITKYMGYYQLKIGYHLGDAVLSAKGQYNWNTGYGGAELGLSYPITKHVRLYTQVYSGYGESLIDYNFNQTRVGVGVMLNDLF [P0A921]	–	7.24 ± 0.85 h	5.96 ± 0.66 h	3.01 ± 0.048 h	6.37 ± 1.1 h	14.2 ± 0.33 h	6.28 ± 0.44 h	13.3 ± 0.75 h	6.13 ± 0.1 h	14.2 ± 0.75 h	6.42 ± 0.11 h	6.15 ± 0.48 h
